Experimental findings from patent US20020091083, “DNA-binding protein YB-1-containing collagen accumulation inhibitors” (Sumitomo Chemical Company, Ltd., published 2002) are described below.

The data set deals with YB-1 (DNA-binding protein) (Homo sapiens, UniProt P67809 SEQ:1-317). Description: EMSA; 200 ng protein, 1 ug poly dI-dC, on ice 30 min. The settings on record: tags: His tag (pET-28a(+), Ni-NTA purified from E. coli BL21-GOLD(DE3)); label: 32P 5' end. The method, then: An oligonucleotide consisting of the nucleotide sequence represented by SEQ ID No:.3 was mixed with an oligonucleotide consisting of the nucleotide sequence complementary with its nucleotide sequence, and this oligonucleotide mixture was boiled for 5 minutes and then allowed to stand at room temperature. Then this oligonucleotide mixture in an amount corresponding to 10 pmol DNA, 2 μl of a T4 kinase buffer, 1 μl of T4 kinase and 6 μl of γ-³²P-ATP(>3000 Ci/mmol, DAIICHI KAGAKU YAKUHIN, Catalog No.NEG-502A) were mixed with distilled water to make the total volume 20 μl, which was then kept at 37° C. for 1 hour. This mixture was loaded onto Quick Spin Column G-25 (Boehringer, Catalog No.1273949). This column was centrifuged (2,500 rpm, 5 minutes), and the effluent was recovered. The effluent thus recovered was subjected to a 10% polyacrylamide gel electrophoresis to recover a gel portion containing a ³²P-labelled double-stranded DNA. the gel portion thus recovered was combined with distilled water, kept at 37° C. over one whole day and night, and extracted to obtain the ³²P-labelled DNA (hereinafter referred to as the binding probe). Thus the binding probe was prepared. […]
Sequence of YB-1 (DNA-binding protein) (P67809 other isoform, or with tags, fused parts or gaps): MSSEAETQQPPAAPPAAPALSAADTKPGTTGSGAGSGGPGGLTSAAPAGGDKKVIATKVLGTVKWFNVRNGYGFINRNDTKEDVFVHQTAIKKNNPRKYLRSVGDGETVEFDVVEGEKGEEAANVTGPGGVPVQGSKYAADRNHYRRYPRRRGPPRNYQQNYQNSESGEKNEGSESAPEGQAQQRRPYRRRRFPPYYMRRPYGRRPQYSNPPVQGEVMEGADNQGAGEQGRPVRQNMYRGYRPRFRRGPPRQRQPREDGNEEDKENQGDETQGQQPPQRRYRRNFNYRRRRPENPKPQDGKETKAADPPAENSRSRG

B1: COL1A2 promoter binding probe (dsDNA)
DNA 1: CCCCCCATTCGCTCCCTCCTCTGCGCCCCCGCAGGCTC
DNA 2: GAGCCTGCGGGGGCGCAGAGGAGGGAGCGAATGGGGGG
Regarding B1, the binding result is “binds”.

B2: COL1A2 promoter non-binding probe (dsDNA)
DNA 1: CCCCGGATTCGCTCCCTCCTCTGCGCCCCCGCAGGCTC
DNA 2: GAGCCTGCGGGGGCGCAGAGGAGGGAGCGAATCCGGGG
As for B2, the binding result is “no binding”.
